B1: SEQ ID NO: 208: Ascaris suum carboxylate reductase (protein, listed as Ascaris suum)
chain: MRYWWKTSHSNYKLDAVCDINNQTRELPVSVASCKDGSRVAACLDGDHLAPFIHEDALTLYEGVRRGLRVSNNGPMLGYRKKQPDGSEPYVWLTYKEVIDRAVDFAYGLLDVGIPAGQKTFIGVYAKNRPEWVIAEQGTYNNNSVLVPLYETLGPDACTFIINQSEMSMVICDTEVKAAGLLKEKENIPTLKYLVVMEDYTNGLREAAAREGVYVYHFLDIEKRGREFVNKPALQIPSPGDVCTICYTSGTTGAPKGVMLTHGNVIAAATALTFVRNINFCETDVVISFLPLAHMFERLLECIIFQTGAHVGFFSGDIRRLPEDIKELRPTVIPLVPRVLNRIYDKVMSEVNKSFIKKAVFHFALAFKVRELRNGIVRNDSVFDKLVFNKIRDAMGGRVKLMVTGSAPLAEKVMTFARAAMGCVVLEGYGQTECAAASTLGIEADTRAGHVGIPSICNAVKLVDVPELEYYAKDMVGEVCIRGFNVFKGYYKNDELTREVLDDQGWLHTGDVGRWTENGTLQIIDRKKHIFKLSQGEYVAPEKIEGIYARSKYVAQSFVHGESLKTCLVGVIVPDPEALERVAAERFGLKDVKLKELCSNEAVRQLILEDITAVGKKAGLFSFEQVKDIFLTPDAFSVGNDLLTPTLKNKRPKLKEHFAAQLESMYSKLN
B2: SEQ ID NO: 207: Dictyostelium discoideum carboxylate reductase (protein, listed as Dictyostelium discoideum)
chain: MINNWLAVGLLVVSGILAFNWKRKHPYGQTVEIGEKPENGGRIRRNSACADHLISFLEDDEIYTLYDSLVKSCKKYGERKCFGERKKDSNGNLGKFEWISYNTYLERCEYIQQGLCELGLKPKSKVGIFSKNRLEWLIVHSASFIQSYCVVSFYETLGVESLSYVTEHAEIGLAFCSAETLQKTLDIAKGVKVLKTIICFDSIDKEHYNIAKELGVTLYTYDEIMKKGKEANGKHKHTPPTPDTLSTIMYTSGTTGPPKGVMITHKNLTSVVCAVSDFIKVYDTDVHYSYLPYAHVLERVVILAAFHFGAAIGIFSGDISNILVEVKLLSPTLFIGVPRVFERIKTNVFKEISKKPALLRTLFNGAYNLKYLSIQHGFKLPIIEKVLDLVFFSKIKQALGGKVRVILSGSAPLSFDTEVFLRVVMCCCVLQGYGASEGCGGDACKRLDDESVGTIGPPFASNEIKLVDVPELGYDSNGEVQTGEVCLRGPSISSGYYKDEEKTREEFKDGWFHTGDIGRWNRDGSLSIVDRKKNIFKLSQGEYVAVEKIETIVVKSEYVEQVCIYGDSQKSCVIAIIHPHPESCSEWAGSKKTDKDIKEICKNQDFIKVVLDDIIKNCKKSGLHGFEIPKAIHLTPEAFSDQNNLLTPSFKLKRHEIKKYFEDEIKKLYSKLD
B3: SEQ ID NO: 76: Thermovirga lienii thioesterase (protein, listed as Thermovirga lienii)
chain: MYEHNFRISYSQAGALGRLKLTGAMNLCQDIADDHAERVGVSVADLLKQSKTWVLHRFKMTIQTMPQRGDLVTIKTWYRPEKNLYSLRNFEMLDCNGKKLLSVQTSWVVVDMNRGRPLRLDRVMPEAYDKNKDENLEVSFQELLLPEKVDVKKTIQVAVTDLDMNFHVNNVHYLRWALDTIPVEILKEYKPKGVEIAFKRPAFYGDSVISEVGIDKNSCSILCRHHIYGEKDGQSMAVISTEWEKISREER
modifications: Thermovirga lienii (strain ATCC BAA-1197 / DSM 17291 / Cas60314)
notes: Thermovirga lienii thioesterase
B4: SEQ ID NO: 93: Oceanimonas sp. thioesterase (protein)
chain: MLRILVLLLCLVSPTVLADTLLILGDSLSAGYRMRSDQAWPHLLAEQWRREGRQVTVINASVSGDTTQGGLQRLPPLLQRHQPSLVLLELGGNDGLRGLPPGLIERNLERLIALAGDAGARVILTDIQLPPNYGRRYLQQFEQVFSRLASQHQLPLLPFFVAPLMGEQGMMMDDGIHPTVKAQPLIARQVGEFLTPYLTP
modifications: Oceanimonas sp. (strain GK1)
notes: Oceanimonas sp. thioesterase
B5: SEQ ID NO: 75: Clostridium thermocellum thioesterase (protein, listed as Clostridium thermocellum)
chain: MQKKRFSKKYEVHYYEINSMQEATLLSLLNYMEDCAISHSTSAGYGVNELLAADAGWVLYRWLIKIDRLPKLGETITVQTWASSFERFYGNREFIVLDGRDNPIVKASSVWIYFNIKKRKPMRIPLEMGDAYGIDETRALEEPFTDFDFDFEPKVIEEFTVKRSDIDTNSHVNNKKYVDWIMETVPQQIYDNYKVTSLQIIYKKESSLGSGIKAGCVIDEQNTDNPRLLHKIWDKNTGLELVSAETIWQKIQS
modifications: Clostridium thermocellum (strain ATCC 27405 / DSM 1237 / NBRC 103400 / NCIMB 10682 / NRRL B-4536 / VPI 7372)
notes: Clostridium thermocellum thioesterase
B6: SEQ ID NO: 60: Escherichia coli thioesterase (protein)
chain: MNTTLFRWPVRVYYEDTDAGGVVYHASYVAFYERARTEMLRHHHFSQQALMAERVAFVVRKMTVEYYAPARLDDMLEIQTEITSMRGTSLVFTQRIVNAENTLLNEAEVLVVCVDPLKMKPRALPKSIVAEFKQ
modifications: Escherichia coli (strain K12)
notes: Escherichia coli thioesterase
B7: SEQ ID NO: 61: Congregibacter litoralis KT71 thioesterase (protein)
chain: MGLLLGLALLLTGQLARAESTAGERPRILVVGDSISAAYGMSLEQGWAALLERRLQTRWPGAQVINASISGDTSAGGARRLPKLLAEHSPDLVVIELGGNDGLRGYPTSKLEANLSFMAEAASTAGAEVLILPMEIPPNYGPRYTRSFRESFERAATDTGATLGPFLLDGIATEEQLMQQDGIHPTVEAQPMITDIVQPVIEALLALREAS
modifications: Congregibacter litoralis KT71
notes: Congregibacter litoralis KT71 thioesterase
B8: SEQ ID NO: 94: Paenibacillus sp. IHBB 10380 thioesterase (protein)
chain: MGNIWTEEHLIYSNEIDYKANCRLSNLLSLMQRAADGDVEHMGGTRDQMVAHHLGWMLTTIDLACERMPIFNETLKITTWNKGTKGPLWLRDFRIFDENNQEIAKACTLWALVDIDKRKVLRPSAYPFNINSNHEDSVGPVPDKLNISDEVELYHSYSITVRYSGIDSNGHLNNSRYADLCMDTLTQSELDTLSILGFHITYYHEVKSAEQIQVLRSDHLEGYIYFRGQSLEDERYFEACLHVG
modifications: Paenibacillus sp. IHBB 10380
notes: Paenibacillus sp; IHBB 10380 thioesterase

System in the first test: not listed separately
Description: In vivo carboxylate reductase screening, substrate consumption by LC-MS, monomethyl heptanedioate. The test is classed as cell-based, Escherichia coli. Particulars: 541 enzymes screened in vivo. The method, then:
To screen carboxylate reductases in vivo, […] T7- pUC expression vectors was co-transformed into T7 Express lysY/Iq with the phosphopantetheinyl transferase sfp from Bacillus subtilis on a T7-pCDF expression vector. Biological duplicates of the resulting strains were incubated in 0.5 mL of terrific broth containing either 1 g/L heptanedioate or 1 g/L monomethyl heptanedioate and supplemented with 0.4 mM IPTG in 96-well deep well plates. The plates were incubated for 30 h at 30° C. in a shaking incubator. The cells were then pelleted, and culture supernatants from the same strains in media containing either heptanedioate or monomethyl heptanedioate were combined. The combined supernatants were analyzed by LC-MS to determine the concentration of heptanedioate and monomethyl heptanedioate. Carboxylate reductase activity on heptanedioate or monomethyl heptanedioate was reflected by consumption of the respective substrate in the medium.
For the molecule B1, the monomethyl heptanedioate activity result was “most monomethyl heptanedioate activity”.

As to B2, the monomethyl heptanedioate activity result is listed as “most monomethyl heptanedioate activity”.

For a further test, the system named is heptanedioyl-ACP methyl ester. Description: Cell lysate in vitro thioesterase screen (DTNB, absorbance at 410 nm) on heptanedioyl-ACP methyl ester. The test is classed as biochemical. Particulars: 0.33 mM acyl-ACP substrate, 30° C., 30 min.
Consider B3, for which the “activity toward heptanedioyl-ACP methyl ester (hydrolysis)” value is “notable for their activity toward heptanedioyl-ACP methyl ester”.

On to B4, for which the “activity toward heptanedioyl-ACP methyl ester (hydrolysis)” value is “notable for their activity toward heptanedioyl-ACP methyl ester”.

Turning to B5, the “activity toward heptanedioyl-ACP methyl ester (hydrolysis)” value is on record as “notable for their activity toward heptanedioyl-ACP methyl ester”.

For the molecule B6, the “activity toward heptanedioyl-ACP methyl ester (hydrolysis)” value is “notable for their activity toward heptanedioyl-ACP methyl ester”.

Turning to B7, the “activity toward heptanedioyl-ACP methyl ester (hydrolysis)” value was “notable for their activity toward heptanedioyl-ACP methyl ester”.

On to B8, for which the “activity toward heptanedioyl-ACP methyl ester (hydrolysis)” value was “notable for their activity toward heptanedioyl-ACP methyl ester”.

Another test deals with heptanedioyl-ACP methyl ester.
Assay: not given
It counts as cell-based, Escherichia coli. Particulars: top 150 hits screened in vivo.
As to B3, the “activity toward heptanedioyl-ACP methyl ester in vivo” value is “showed activity toward heptanedioyl-ACP methyl ester”.

Take B5: the “activity toward heptanedioyl-ACP methyl ester in vivo” value is on record as “showed activity toward heptanedioyl-ACP methyl ester”.

The record behind these values is US10801046B2, “Methods and materials for biosynthesizing multifunctional, multivariate molecules via carbon chain modification” (INVISTA NORTH AMERICA S.A.R.L., priority 2016, dated 2020).
